Measured values published in the RNAGym collection of RNA variant scans (doi:10.1073/pnas.2313332121).
This sample holds only a part of the variants without activity.

B1: TPR 5TU (parent)
chain: GGAUCUUCUCGAUCUAACAAAAAAGACAAAUCUGCCACAAAGCUUGAGAGCAUCUUCGGAUGCAGAGGCGGCAGCCUUCGGUGGCGCGAUAGCGCCAACGUUCUCAACUAUGACACGCAAAACGCGUGCUCCGUUGAAUGGAGUUUAUCAUG

Variants of: B1
Experiment: polymerase ribozyme fitness, log enrichment relative to wild type (log ratio); higher = more active; in vitro selection for triplet polymerase activity
Method in brief: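 A single round of triplicate in vitro selection, including frozen incubation at −7 °C, was applied to PCR-built, transcribed mutant libraries of each subunit of a heterodimeric triplet polymerase ribozyme. Illumina sequencing of input and output libraries retained genotypes with ≥10 input reads and ≥1 read per output. Fitness is the base-2 logarithm of genotype enrichment divided by wild-type enrichment, from inverse-variance-weighted replicate averages.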

Variant | polymerase ribozyme fitness (log ratio)
GGAUCUUCUCGAUCUAACAAAAAAGACAAAUCUGCCACAAAGCUUGAGAGCAUCUUCGGAUGCAGAGGCGGCAGCCUUCGGUGCCGCGAUAGCGCCAACGUUCUCAACUAUGACCUGCAAAACGCGUGCUCCGUUGAAUGGAGUUUAUCAUG [G84C A115C C116U] | -3.98
GGAUCUUAUCGAUCUUUCAAAAAAGUCAAAUCUGCCACAAAGCUUGAGAGCAUCUUCGGAUGCAGAGGCGGCAGCCUUCCGUGGCGUGAUAGCGCCAACGUUCUCAACUAUGACACGCAAAACGCGUGCUCCGUUGAAGGGAGUUUAUCAAG [C8A A16U A17U A26U G80C C87U U139G U151A] | ≤ -4.2
GGAUCUUCUCGAUAUAACAAAAAAGACUAAUCUGCCACAAAGCUUCAGAGCAUCUUCGGAAGCAGAGGCGGCAGCCUUCGGUGGCGCGAUAGCGUCAACGUUCUCAACUAUGACACGCAAAACGCGUGCUCCGUUGAACGGAGUUUAUCCUG [C14A A28U G46C U61A C95U U139C A150C] | ≤ -4.2
GGAUCAUCUCGAUCUAACAAAAAAGACAAAUCUGCCACAAAGCUUGAGAGCAUCUUCGGAUGCAGAGGCGGCAGCCUUCGGUGGCGUGAUAGCGCCAACGUUCUCAACUAUGACACGCAAAACGCGUGCUCCGUUGAAUGGAGUUUAUCAUG [U6A C87U] | -0.846
GGAUCUUCUCGAUCUAACAAAAAAGACAAAUCUGCCACAUAGCUUGAGAGCAUCUUCGGAUGCAGAGGCGGCAGCCUUCGGUGGCGUGAUAGCGCCAACGUUCUCAACUAUGACACGCAAAACGCGUGCUCCGUUGAAUGGAGUUUAUCAUG [A40U C87U] | -0.375
GGAUCUUCUCGAUCUAACAAAAAAGACAAAUCUGCCACAAAGCUUGAGAGCAUCUUCGGUUGCAGAGGCGGCAGCCUUCGGUGUCGCGAUAGCGCCAACGUUCUCAACUAUGACACGCAAAACGCGUGCUCCGUUGAAUGGAGUUUAUCAUG [A60U G84U] | -1.58
GGAUCUUCUCGAUCUAACACAAAGGACAAAUCUGCCACAAAGCUUGAGAGCAUCUUCGGAUGCAGAGGCGGCAGCCUUCGGUGGCGCGAUAGCGCCAACGUUCUCAACUAUGACACGCAAAACGCGUGCUCCGUUGAAUGGAGUUUAUCAUG [A20C A24G] | -4.02
GGAUCUUCUCGAUCUAACAAAAAAGACAAAUCUGCCACAAAGCUUGAGAGCAUCUUCGGAUGCAGAGGCGGCAGCUUUCGGUGGCGCGAUAGCGCCAACGUUCUCAACUAUGACACGCGAAACGCUUGCUCCGUUGAAGGGAGUUUAUCAUG [C76U A119G G126U U139G] | -0.649
GGAUCUUCUCGACCUAACAAAAAAGACAAAUCUGCCACAAAGCUUGAGAGCAUCUUCAGAUGCAGAGGCGGCAGCCUUCGGUGGCGCUAAAGCGCCAACGUGCUCAACUAUGACACGCAAAACGCGUGCUCCGUUGAAUGGAGUUUAUCAUG [U13C G58A G88U U90A U102G] | ≤ -4.2
GGAUCUUCUCGAUCUAACAAAAAAGACAAAUCUGCCACAAAGCUUGAGAGCAACUUCGGAUGCAGAGGCGGCAGCUUUCGGUAGCGCGAUAGCGCCAACGUUCUCAACUAUGACACGCAAAACGCGUGCUCCGUUGAAUGGAGUUUAUCAUG [U53A C76U G83A] | -1.6
GGAUCUUCUCGAUCUAACAAAAAAGACAAAUCUGCCACAAAGCUUGAGAGCAUCUUCGGAUGCAGAGGCGGCAGCCUUCGUUGUCGCGAUAGCGCCAACGUUCUCAACUAUGACACGCUAAACGCGUGCUCCGUUGAAUGGAAUUUAUCAUG [G81U G84U A119U G143A] | -1.61
GGAACUUCCCGAUCUAACAAAAAAGAGAAAUCUGCCACAAAGCUUGAGAGCAUCAUCGGAUGCAGAGGCCGCAGCCUUCGGUGGAGCGAUAGCGCCAACGUUCUCAACUAUGACACGCAAAACGCGGGCUCCGUUGAAUGGUGUUUAUCAUG [U4A U9C C27G U55A G70C C85A U127G A142U] | ≤ -4.2
GGAUCUUCUCGUUCUAACAAAAAAGACAAAUCUGCCACAAACCUUGAGAGUAUCUUCGGAUGCAGAGGCGGCAGCCUUCGGUGGCGCGAUAGUGCCAACGUUCUCAACUAUGACACGCAAAAAUCGUGCUCCGUUGAAUGGAGUUUAUCAUG [A12U G42C C51U C93U C123A G124U] | ≤ -4.2
GGAUCUUGUCGAUCUAACACAAAAGACAAAUCUGCCACAAAGCUUGAGAGCAUCUUCGGAUGCAGAGGCGGCUGCCUUCGGUGGCGCGAUAGCGCCAAGGUUCUCGACUAUGACACGCAAAACGCGUGCUCCGUUGAAUAGAGGUUCUCAUG [C8G A20C A73U C99G A106G G140A U144G A147C] | ≤ -4.2
GGAUCUUCUCGAUCUAACAAAAAAGACAAAUCUGCCACUAAGCUUGAGAGCAUCUUCGGAUGCAGAGGCGGCAUCCUUCGCUGGCGCGAUUGCGCCAGUGUUCUCAACUAUGACACGCAAAACACGUGCUCCGUUGAAUGGAGUUUAUCAUG [A39U G74U G81C A91U A98G C99U G124A] | ≤ -4.2
GGAUCUUCUCGAUCUAACAAAAAAGACUAAUCUGCCACAAAGCUUGAGAGCAUCUUCGGAUGCAGAGGCGGCAGCGUUCGGUGGCGCGAUAUCGCCAACGUUCUCAACUAUGACACGCAAAACGCGUGCUCCGUUGAAUGGAGUUUAUCAUG [A28U C76G G92U] | ≤ -4.2
GGAUCUUCUCGAUCUAACAAAAAAGACAAAUCUGCCACAAAGCUUGAGAGCAUCUUCGGAUGCAGAGGCGGUAGCCUUCGGUGGCGCGAUAGCGCCAACGUUCUCAACUAUGACACGCAAAACGCGUGCUCCGAUGAAUGGAGUUUAUCAUG [C72U U134A] | -2.32
GGAUCUUCUCGAUCUAACAAAAAAGACAAAUCUGUCACAAAGCUUGAGAGCCUCUUCGGAUGCAGAGGCGGCAGCCUUCGGUGGCGCGAUAGCGCCAACGUUCUCAACUAUGACACGCAAAAUGCGUGCUCCGUUGAAUGGAGUUUAUCAUG [C35U A52C C123U] | -1.31
GGAUCUUCUCGAUCUAACAAAAAAGACAACUCUGCCACAAAGCUUGAGAGCAUCUUCGGAUUCAGAGGCGGCAGCCUUCGGUGGCGCGAGAGCGACAACGUUCUCAACUAUGACACGCAAAACACGUGCUCCGUUGACUGGAGUUUAUCACG [A30C G62U U90G C95A G124A A138C U151C] | ≤ -4.2
